{
  "source": "paper PMC11383277",
  "about": "(bioRxiv, 2024)",
  "target": "human NaV1.8 alpha-subunit (human, UniProt Q9Y5Y9 1-1956, M1713V)",
  "assay": "cryo-EM structure",
  "data": [
    {"binder": "ECRYWLGGCSAGQTCCKHLVCSRRHGWCVWDGTFS", "note": "[Protoxin-I]", "values": [
      {"measurement": "binding result", "value": "binds"}
    ]}
  ]
}
